Values of other authors, collected in article PMC3240149.

Columns and labels:
MMP-3 (Homo sapiens) = MMP-3 (Homo sapiens) (UniProt P08254)
[1] = target: TACE (ADAM-17) (Homo sapiens) (UniProt P78536)
MMP-2 (Homo sapiens) = MMP-2 (Homo sapiens) (UniProt P08253)
Sequence of UniProt P08253 (P08253 110-660): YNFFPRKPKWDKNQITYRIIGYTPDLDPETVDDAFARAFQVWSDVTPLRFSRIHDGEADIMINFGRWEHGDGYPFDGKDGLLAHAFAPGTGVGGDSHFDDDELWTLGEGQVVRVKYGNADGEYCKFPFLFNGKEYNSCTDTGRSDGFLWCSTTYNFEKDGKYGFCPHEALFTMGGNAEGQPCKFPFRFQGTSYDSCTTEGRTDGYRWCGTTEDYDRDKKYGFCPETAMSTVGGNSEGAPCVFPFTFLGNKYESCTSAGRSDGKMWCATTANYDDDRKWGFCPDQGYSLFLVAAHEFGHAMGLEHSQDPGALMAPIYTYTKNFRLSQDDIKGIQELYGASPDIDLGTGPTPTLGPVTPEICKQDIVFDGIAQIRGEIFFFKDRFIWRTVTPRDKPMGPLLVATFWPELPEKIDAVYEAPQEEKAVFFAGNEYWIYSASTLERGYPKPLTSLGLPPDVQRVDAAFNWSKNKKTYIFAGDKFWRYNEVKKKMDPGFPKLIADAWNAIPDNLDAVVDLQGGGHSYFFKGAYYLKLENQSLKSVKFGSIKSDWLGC

Sequence of UniProt P78536 (P78536 215-671): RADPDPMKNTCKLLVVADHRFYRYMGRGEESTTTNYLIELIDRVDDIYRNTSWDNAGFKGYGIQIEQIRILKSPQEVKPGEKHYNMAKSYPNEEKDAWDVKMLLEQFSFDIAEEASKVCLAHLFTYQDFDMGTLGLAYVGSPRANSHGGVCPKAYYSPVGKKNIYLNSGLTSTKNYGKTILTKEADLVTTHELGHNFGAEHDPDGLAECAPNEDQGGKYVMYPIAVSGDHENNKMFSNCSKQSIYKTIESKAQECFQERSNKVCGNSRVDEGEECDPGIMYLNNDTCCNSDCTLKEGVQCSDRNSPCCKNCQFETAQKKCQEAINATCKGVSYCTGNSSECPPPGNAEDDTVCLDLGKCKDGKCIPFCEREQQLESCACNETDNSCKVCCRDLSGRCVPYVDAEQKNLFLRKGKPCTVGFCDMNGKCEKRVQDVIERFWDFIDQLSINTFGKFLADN
Sequence of UniProt P08254 (P08254 100-477): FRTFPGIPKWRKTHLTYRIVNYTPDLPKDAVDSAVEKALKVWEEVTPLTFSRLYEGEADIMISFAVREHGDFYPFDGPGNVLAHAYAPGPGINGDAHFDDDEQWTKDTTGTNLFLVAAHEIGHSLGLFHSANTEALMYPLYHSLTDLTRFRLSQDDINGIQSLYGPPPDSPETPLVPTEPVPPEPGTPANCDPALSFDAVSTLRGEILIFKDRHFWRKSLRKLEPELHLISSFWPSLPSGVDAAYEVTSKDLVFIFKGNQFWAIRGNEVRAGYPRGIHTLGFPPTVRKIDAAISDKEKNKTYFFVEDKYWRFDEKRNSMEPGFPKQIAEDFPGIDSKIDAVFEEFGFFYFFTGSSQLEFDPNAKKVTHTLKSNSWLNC

Row | Ki (MMP-2 (Homo sapiens)) | Substance | Ki (MMP-3 (Homo sapiens)) | Ki [1]
1 | – | TIMP-3 (from UniProt P35625) | 67 nM | 0.182 nM
2 | 1000 nM | TIMP-2 (from UniProt P16035) | – | –
